Results: patent publication US20110306125A1, “Protein Expression Methods” (Ironwood Pharmaceuticals, Inc., priority 2008, published 2011)

Target: T1, GC-C receptor (Homo sapiens, UniProt P25092)
T1 construct: production of intracellular cGMP using cultured human colon carcinoma T84 cells; endogenous in cells; host or cells: T84 human colon carcinoma cells
Assay: production of intracellular cGMP in cultured human colon carcinoma T84 cells (cGMP ELISA)
Type: cell-based
Conditions: intracellular cGMP by ELISA kit, compared with synthetic human uroguanylin, FIG. 8
Experimental: The ability of polypeptides, variant polypeptides and other compounds to bind to and activate the intestinal GC-C receptor can be tested using the T84 human colon carcinoma cell line (American Type Culture Collection (Bethesda, Md.).
Briefly, cells are grown to confluency in 24-well culture plates with a 1:1 mixture of Ham's F12 medium and Dulbecco's modified Eagle's medium (DMEM), supplemented with 5% fetal calf serum and are used at between passages 54 and 60.
Monolayers of T84 cells in 24-well plates are washed twice with 1 ml/well DMEM, then incubated at 37° C. for 10 min with 0.45 ml DMEM containing 1 mM isobutylmethylxanthine (IBMX), a cyclic nucleotide phosphodiesterase inhibitor. Test polypeptides (50Tl) are then added and incubated for 30 minutes at 37° C. The media is aspirated and the reaction is terminated by the addition of ice cold 0.5 ml of 0.1N HCl. […] Cyclic GMP is measured by EIA according to procedures outlined in the Cayman Chemical Cyclic GMP EIA kit.
The activity of the mature peptide was evaluated by the production of intracellular cGMP using cultured human colon carcinoma T84 cells, as described by Currie et al. (Pro. Natl. Acad. Sci. USA., 89:947-951, 1992). cGMP levels were subsequently measured using a cGMP ELISA kit (Cayman Chemical, Ann Arbor, Mich.) according to the manufacturer's protocol. […]

T1 sequence (P25092 24-1073): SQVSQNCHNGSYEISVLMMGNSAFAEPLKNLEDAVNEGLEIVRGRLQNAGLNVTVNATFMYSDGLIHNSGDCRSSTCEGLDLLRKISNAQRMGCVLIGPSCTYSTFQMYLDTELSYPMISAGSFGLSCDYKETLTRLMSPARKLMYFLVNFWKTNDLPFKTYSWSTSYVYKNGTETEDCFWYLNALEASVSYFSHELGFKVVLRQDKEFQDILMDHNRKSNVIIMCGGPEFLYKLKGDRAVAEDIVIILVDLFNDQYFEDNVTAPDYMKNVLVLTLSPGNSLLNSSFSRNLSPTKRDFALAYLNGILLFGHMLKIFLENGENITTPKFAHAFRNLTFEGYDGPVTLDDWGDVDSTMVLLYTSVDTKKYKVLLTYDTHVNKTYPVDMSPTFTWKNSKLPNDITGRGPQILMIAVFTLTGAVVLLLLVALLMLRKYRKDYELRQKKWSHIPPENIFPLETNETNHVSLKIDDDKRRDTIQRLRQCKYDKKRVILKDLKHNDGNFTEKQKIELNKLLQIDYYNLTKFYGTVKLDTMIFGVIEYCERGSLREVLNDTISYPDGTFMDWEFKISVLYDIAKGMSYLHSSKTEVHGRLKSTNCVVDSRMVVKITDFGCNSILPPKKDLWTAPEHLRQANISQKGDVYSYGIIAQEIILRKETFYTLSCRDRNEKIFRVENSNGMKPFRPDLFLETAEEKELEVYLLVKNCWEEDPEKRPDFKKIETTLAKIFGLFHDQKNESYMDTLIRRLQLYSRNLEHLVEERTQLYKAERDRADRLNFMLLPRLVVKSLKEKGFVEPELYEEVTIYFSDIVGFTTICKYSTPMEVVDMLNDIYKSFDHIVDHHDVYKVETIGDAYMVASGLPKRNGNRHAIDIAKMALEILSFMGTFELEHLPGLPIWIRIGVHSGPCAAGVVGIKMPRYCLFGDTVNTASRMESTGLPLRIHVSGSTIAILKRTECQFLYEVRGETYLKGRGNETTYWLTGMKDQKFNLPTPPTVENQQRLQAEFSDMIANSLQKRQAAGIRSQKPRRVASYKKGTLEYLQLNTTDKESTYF

NDDCELCVNVACTGCL [mature UGN peptide]
cGMP levels produced: comparable to those levels produced using synthetic human UGN
